This is an account of results in article PMC10645843, “Fungal secondary metabolism is governed by an RNA-binding protein CsdA/RsdA complex” (Nature Communications, 2023).

In data set [1] the target is T1, GST-CsdA (Pestalotiopsis fici CGMCC3.15140, UniProt W3WSJ8 1-634).
T1 sequence: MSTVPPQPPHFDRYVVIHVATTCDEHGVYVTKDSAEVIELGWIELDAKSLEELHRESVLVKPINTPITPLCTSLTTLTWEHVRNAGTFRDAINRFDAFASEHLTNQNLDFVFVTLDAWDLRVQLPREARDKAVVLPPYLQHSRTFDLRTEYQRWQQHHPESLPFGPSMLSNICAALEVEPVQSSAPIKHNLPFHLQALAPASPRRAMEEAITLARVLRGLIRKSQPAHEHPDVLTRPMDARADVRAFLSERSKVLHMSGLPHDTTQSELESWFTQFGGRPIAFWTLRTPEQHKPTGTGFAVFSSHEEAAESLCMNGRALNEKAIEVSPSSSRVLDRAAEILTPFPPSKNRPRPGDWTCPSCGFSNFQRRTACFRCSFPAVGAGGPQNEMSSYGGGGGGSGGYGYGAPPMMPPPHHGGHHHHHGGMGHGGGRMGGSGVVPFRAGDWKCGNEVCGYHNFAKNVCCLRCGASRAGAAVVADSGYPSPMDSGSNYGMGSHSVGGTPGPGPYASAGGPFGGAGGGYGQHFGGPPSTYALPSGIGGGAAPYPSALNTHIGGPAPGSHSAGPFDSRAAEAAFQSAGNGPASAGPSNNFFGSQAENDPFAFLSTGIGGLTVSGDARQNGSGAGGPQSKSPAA
The data set is described as follows: ITC; EMSA: Beyotime EMSA kit buffer, 20 min at 25 C, 6% polyacrylamide gel; ITC: 200 uM RNA into 50 uM CsdA, 25 C, buffer not stated (protein elution buffer 50 mM Tris, 150 mM NaCl, 10 mM GSH, pH 8.0). The conditions noted are these: protein: recombinant; tags: GST (N-terminal, pGEX-4T; pYSZL6). Background: ITC needs no label: the signal is the heat of the interaction.

The target of data set [2] is T1, GST-CsdA. In words: EMSA; EMSA: Beyotime EMSA kit buffer, 20 min at 25 C, 6% polyacrylamide gel; ITC: 200 uM RNA into 50 uM CsdA, 25 C, buffer not stated (protein elution buffer 50 mM Tris, 150 mM NaCl, 10 mM GSH, pH 8.0). The conditions noted are these: protein: recombinant; tags: GST (N-terminal, pGEX-4T; pYSZL6); label: biotin. In general terms: Mobility shift assays separate free from complexed probe on a gel.

The target in data set [3] is T2, RsdA-His (PFICI_10532), recombinant (Pestalotiopsis fici, UniProt W3WX91 1-730).
T2 construct: RsdA, regulator of secondary metabolism and development, Pestalotiopsis fici, locus PFICI_10532; open reading frame amplified from P. fici cDNA; RsdA-His printed as 80.4 kDa; Printed as RsdA-His; vector pET28a (His6-tag); also called PfRsdA; RsdA-His protein; source: E. coli BL21 (plasmid pYZS42, pET28a), purified (Ni-NTA resin)
T2 sequence (looked up): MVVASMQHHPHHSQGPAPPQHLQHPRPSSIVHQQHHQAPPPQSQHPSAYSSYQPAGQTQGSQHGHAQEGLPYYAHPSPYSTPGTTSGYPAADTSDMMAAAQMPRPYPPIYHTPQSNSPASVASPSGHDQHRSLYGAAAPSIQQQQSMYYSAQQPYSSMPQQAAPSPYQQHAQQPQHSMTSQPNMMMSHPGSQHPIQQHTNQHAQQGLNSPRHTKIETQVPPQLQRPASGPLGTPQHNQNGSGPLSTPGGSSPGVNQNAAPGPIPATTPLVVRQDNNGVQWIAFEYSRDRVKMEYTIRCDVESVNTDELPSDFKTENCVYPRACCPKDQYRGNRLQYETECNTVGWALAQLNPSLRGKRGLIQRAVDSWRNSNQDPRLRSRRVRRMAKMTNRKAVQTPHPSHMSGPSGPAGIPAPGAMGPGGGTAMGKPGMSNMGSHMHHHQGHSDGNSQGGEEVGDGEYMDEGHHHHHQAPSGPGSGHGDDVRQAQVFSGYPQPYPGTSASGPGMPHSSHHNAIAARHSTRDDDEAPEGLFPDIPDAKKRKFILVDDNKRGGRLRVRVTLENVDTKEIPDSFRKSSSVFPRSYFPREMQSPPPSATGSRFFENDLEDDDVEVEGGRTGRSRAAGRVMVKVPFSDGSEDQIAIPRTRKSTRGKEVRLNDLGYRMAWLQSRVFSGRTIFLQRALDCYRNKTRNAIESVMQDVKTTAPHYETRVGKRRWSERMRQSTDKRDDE
The data set is described as follows: pull-down; His pull-down: RsdA-His (or RsdA^ΔC-terminal-His) held on Ni-NTA resin, purified GST-CsdA or its deletion forms added, overnight at 4 °C; binding buffer 50 mM Tris, 250 mM NaCl, 0.2% glycerol, 5 mM DTT, 0.6% Triton X-100, 1 mM PMSF, pH 7.5; wash with 1% Triton X-100; western blot with anti-His and anti-GST. Particulars: both partners purified. In general terms: In western blotting, separated proteins are transferred to a membrane and probed.

GUCGGUAU (ssRNA) [1xGUCGGUAU RNA (ITC)]: the equilibrium dissociation constant (Kd) in the data set with GST-CsdA [1] worked out at 19.7 ± 3.67 µM.
On to CCAGGGAGGUGAAGAAGUCGGUAUGUUUCACCAGAUGUGAU (ssRNA) [rsdA intron 2 5' splice site RNA (EMSA probe)], for which, in the data set with GST-CsdA [2], the binding result was “binds”.
For the molecule GUCGGUAUCGUCGGUAUGGUCGGUAUUGUCGGUAU (ssRNA) [4xGUCGGUAU RNA (ITC)], the Kd with GST-CsdA [1] came to 10.5 ± 5.12 µM.

B1: GST-CsdA (PFICI_10709), recombinant (natural protein, Pestalotiopsis fici, UniProt W3WSJ8 1-634, looked up)
chain: MSTVPPQPPHFDRYVVIHVATTCDEHGVYVTKDSAEVIELGWIELDAKSLEELHRESVLVKPINTPITPLCTSLTTLTWEHVRNAGTFRDAINRFDAFASEHLTNQNLDFVFVTLDAWDLRVQLPREARDKAVVLPPYLQHSRTFDLRTEYQRWQQHHPESLPFGPSMLSNICAALEVEPVQSSAPIKHNLPFHLQALAPASPRRAMEEAITLARVLRGLIRKSQPAHEHPDVLTRPMDARADVRAFLSERSKVLHMSGLPHDTTQSELESWFTQFGGRPIAFWTLRTPEQHKPTGTGFAVFSSHEEAAESLCMNGRALNEKAIEVSPSSSRVLDRAAEILTPFPPSKNRPRPGDWTCPSCGFSNFQRRTACFRCSFPAVGAGGPQNEMSSYGGGGGGSGGYGYGAPPMMPPPHHGGHHHHHGGMGHGGGRMGGSGVVPFRAGDWKCGNEVCGYHNFAKNVCCLRCGASRAGAAVVADSGYPSPMDSGSNYGMGSHSVGGTPGPGPYASAGGPFGGAGGGYGQHFGGPPSTYALPSGIGGGAAPYPSALNTHIGGPAPGSHSAGPFDSRAAEAAFQSAGNGPASAGPSNNFFGSQAENDPFAFLSTGIGGLTVSGDARQNGSGAGGPQSKSPAA
notes: open reading frame amplified from P. fici cDNA; CsdA said to contain 730 amino acids; GST-CsdA printed as 93.6 kDa; Printed as GST-CsdA; vector pGEX-4T (GST-tag); also called PfCsdA; GST-CsdA protein; source: E. coli BL21 (plasmid pYSZL6, pGEX-4T), purified (GST-tag resin)
For the molecule B1, the binding result in data set [3] is reported as “binds”.

In general, Kd refers to a measure of binding affinity in units of concentration.
